For four substances, stoichiometry N results are on record in paper PMC6980832, “Crystal structures of Triosephosphate Isomerases from Taenia solium and Schistosoma mansoni provide insights for vaccine rationale and drug design against helminth parasites” (PLoS Neglected Tropical Diseases, 2020).

Assay in all cases: SEC; gel filtration elution profile of wild-type and point mutants of SmTPI; conditions not shown
(In gel filtration, larger molecules generally elute earlier.)

Test [1] has as its target SmTPI-C221D (Schistosoma mansoni).
Test [2] deals with SmTPI-C221K (Schistosoma mansoni).
In test [3] the target is SmTPI-C221S (Schistosoma mansoni).
In test [4] the target is SmTPI-C221Y (Schistosoma mansoni).

In test [1], SmTPI-C221D (enzyme) yielded a stoichiometry N of 2.
As to SmTPI-C221K (enzyme), the stoichiometry N in test [2] was 2.
Turning to SmTPI-C221S (enzyme), in test [3], the stoichiometry N is 2.
With SmTPI-C221Y (enzyme), in test [4], the stoichiometry N came out at 2.

Usually stoichiometry N stands for the number of molecules, sites or subunits per partner or assembly.
